[ ]: non-standard residue; d: D form. pY = N[C@@H](Cc1ccc(OP(=O)(O)O)cc1)C(=O)O
Assays:
Assay in all cases: HDX-MS; purified p110α/p85α complex (9 pmol) incubated with pY peptide (1 µl of 50 µM) or buffer for 15 min on ice; exchange 3 s on ice and 3, 30, 300, 3000 s at 20 °C; 20 mM HEPES pH 7.5, 100 mM NaCl
Details in all cases: both partners purified
[1] = biological target: T1, p110α-p85α complex (wild type, full length) (human, UniProt P42336 1-1068; P27986 1-724)
T1 construct: p85α, human, residues 1-724; Heterodimer of m1 and m2; also called WT p110α/p85α; full-length p110α-p85α; source: Sf9 (baculovirus), co-expressed, purified (Ni-NTA, Strep column, Q column, gel filtration); not shown: His10, N-terminal, cleaved; 2x Strep, N-terminal, cleaved

[2] = biological target: T2, p110α H1047R-p85α complex (human, UniProt P42336 1-1068; P27986 1-724, H1047R)
T2 construct: p110α, human, full length with the oncogenic mutation H1047R; p85α, human, residues 1-724; Heterodimer of m4 and m2; also called p110α/p85α H1047R; source: Sf9 (baculovirus), co-expressed, purified (Ni-NTA, Strep column, Q column, gel filtration); not shown: His10, N-terminal, cleaved; 2x Strep, N-terminal, cleaved

[3] = biological target: T3, p110α ΔCter (1–1048)-p85α complex (human, UniProt P42336 1-1048; P27986 1-724)
T3 construct: p85α, human, residues 1-724; Heterodimer of m7 and m2; source: Sf9 (baculovirus), co-expressed, purified (Ni-NTA, Strep column, Q column, gel filtration); not shown: His10, N-terminal, cleaved; 2x Strep, N-terminal, cleaved

Measured: binding result

T1 sequence (P42336 whole entry, chain 1 of 2, the tested form may be a part): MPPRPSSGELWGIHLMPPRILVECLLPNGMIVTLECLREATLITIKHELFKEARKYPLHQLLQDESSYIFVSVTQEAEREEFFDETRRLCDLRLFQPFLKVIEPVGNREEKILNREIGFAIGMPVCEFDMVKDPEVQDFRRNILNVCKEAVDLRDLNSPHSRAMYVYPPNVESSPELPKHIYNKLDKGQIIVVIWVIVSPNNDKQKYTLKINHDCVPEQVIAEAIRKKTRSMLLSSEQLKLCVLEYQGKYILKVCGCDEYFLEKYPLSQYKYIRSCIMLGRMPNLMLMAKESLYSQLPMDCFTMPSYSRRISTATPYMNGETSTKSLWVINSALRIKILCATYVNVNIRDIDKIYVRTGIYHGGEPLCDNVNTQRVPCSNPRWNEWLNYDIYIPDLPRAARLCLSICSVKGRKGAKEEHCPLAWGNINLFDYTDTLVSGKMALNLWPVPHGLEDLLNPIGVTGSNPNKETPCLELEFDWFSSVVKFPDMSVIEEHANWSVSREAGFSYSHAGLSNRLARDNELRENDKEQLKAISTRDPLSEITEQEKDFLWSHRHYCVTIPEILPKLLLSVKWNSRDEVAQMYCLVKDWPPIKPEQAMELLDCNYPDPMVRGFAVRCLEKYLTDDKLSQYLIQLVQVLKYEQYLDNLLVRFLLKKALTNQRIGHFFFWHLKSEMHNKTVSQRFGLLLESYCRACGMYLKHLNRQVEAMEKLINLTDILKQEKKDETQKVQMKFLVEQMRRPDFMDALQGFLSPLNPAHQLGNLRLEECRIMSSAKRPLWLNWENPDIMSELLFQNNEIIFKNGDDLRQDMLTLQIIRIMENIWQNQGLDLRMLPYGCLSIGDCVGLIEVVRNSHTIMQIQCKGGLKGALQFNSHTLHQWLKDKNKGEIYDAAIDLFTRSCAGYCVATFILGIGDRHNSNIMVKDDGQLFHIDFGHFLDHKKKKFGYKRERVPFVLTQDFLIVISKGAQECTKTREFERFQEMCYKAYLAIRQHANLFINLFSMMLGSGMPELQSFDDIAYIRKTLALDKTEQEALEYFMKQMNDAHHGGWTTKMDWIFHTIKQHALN
T1 sequence (P27986 whole entry, chain 2 of 2, the tested form may be a part): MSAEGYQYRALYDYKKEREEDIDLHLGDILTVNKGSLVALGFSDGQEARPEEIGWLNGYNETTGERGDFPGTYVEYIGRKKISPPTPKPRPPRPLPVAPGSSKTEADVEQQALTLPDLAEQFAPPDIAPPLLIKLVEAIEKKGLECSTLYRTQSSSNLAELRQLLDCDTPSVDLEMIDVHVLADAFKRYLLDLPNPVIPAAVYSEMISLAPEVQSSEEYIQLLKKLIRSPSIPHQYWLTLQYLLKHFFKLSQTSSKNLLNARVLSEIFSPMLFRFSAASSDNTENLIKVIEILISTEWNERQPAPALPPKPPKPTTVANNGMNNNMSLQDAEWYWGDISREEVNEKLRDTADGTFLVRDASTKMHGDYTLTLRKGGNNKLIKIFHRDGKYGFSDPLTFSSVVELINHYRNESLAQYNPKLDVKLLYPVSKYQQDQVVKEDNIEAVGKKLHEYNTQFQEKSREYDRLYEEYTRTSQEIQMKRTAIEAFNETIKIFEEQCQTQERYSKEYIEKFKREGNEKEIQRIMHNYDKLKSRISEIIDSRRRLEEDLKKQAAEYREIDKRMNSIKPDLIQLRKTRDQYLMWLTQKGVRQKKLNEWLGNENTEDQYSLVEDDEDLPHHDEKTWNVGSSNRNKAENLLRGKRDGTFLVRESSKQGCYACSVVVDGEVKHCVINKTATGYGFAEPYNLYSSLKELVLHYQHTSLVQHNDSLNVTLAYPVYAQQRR
T2 sequence (P42336 whole entry H1047R, chain 1 of 2, the tested form may be a part): as the sequence (P42336 whole entry, chain 1 of 2, the tested form may be a part) above, with H1047R counted along it
T2 sequence (P27986 whole entry, chain 2 of 2, the tested form may be a part): as the sequence (P27986 whole entry, chain 2 of 2, the tested form may be a part) above
T3 sequence (P42336 1-1048, stated change not applied, chain 1 of 2): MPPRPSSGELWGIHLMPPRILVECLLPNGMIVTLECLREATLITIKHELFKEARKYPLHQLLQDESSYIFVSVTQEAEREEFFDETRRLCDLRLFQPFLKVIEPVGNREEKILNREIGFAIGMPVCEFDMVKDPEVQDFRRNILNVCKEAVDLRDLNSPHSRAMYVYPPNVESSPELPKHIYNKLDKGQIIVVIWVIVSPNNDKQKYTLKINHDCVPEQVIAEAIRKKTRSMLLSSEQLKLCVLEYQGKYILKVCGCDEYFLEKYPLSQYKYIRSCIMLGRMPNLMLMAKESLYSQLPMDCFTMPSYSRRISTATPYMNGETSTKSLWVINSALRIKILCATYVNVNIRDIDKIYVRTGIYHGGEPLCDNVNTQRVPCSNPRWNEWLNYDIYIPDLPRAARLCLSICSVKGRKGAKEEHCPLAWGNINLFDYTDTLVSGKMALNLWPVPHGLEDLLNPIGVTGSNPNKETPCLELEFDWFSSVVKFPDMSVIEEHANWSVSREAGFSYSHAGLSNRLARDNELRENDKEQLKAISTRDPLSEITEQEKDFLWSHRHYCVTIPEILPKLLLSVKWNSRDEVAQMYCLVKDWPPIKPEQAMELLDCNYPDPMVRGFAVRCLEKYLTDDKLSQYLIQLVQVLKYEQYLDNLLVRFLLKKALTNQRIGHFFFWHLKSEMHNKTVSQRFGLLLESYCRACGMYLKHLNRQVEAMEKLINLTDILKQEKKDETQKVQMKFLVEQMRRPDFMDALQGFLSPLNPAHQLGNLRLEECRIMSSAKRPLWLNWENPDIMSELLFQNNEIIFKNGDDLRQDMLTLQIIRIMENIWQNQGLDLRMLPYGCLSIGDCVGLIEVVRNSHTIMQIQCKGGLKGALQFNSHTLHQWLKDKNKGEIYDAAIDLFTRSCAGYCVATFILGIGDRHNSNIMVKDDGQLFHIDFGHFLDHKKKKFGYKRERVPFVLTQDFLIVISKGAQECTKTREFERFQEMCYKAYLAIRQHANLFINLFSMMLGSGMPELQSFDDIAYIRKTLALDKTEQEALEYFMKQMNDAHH
T3 sequence (P27986 whole entry, stated change not applied, chain 2 of 2, the tested form may be a part): as the sequence (P27986 whole entry, chain 2 of 2, the tested form may be a part) above

B1: PDGFR bis-phosphorylated pY peptide (PDGFR residues 735–767, pY740, pY751) (peptide)
peptide: H-ESDGG[pY]MDMSKDESID[pY]VPMLDMKGDIKYADIE-OH
SMILES: CC[C@H](C)[C@H](NC(=O)[C@H](CC(=O)O)NC(=O)[C@H](C)NC(=O)[C@H](Cc1ccc(O)cc1)NC(=O)[C@H](CCCCN)NC(=O)[C@@H](NC(=O)[C@H](CC(=O)O)NC(=O)CNC(=O)[C@H](CCCCN)NC(=O)[C@H](CCSC)NC(=O)[C@H](CC(=O)O)NC(=O)[C@H](CC(C)C)NC(=O)[C@H](CCSC)NC(=O)[C@@H]1CCCN1C(=O)[C@@H](NC(=O)[C@H](Cc1ccc(OP(=O)(O)O)cc1)NC(=O)[C@H](CC(=O)O)NC(=O)[C@@H](NC(=O)[C@H](CO)NC(=O)[C@H](CCC(=O)O)NC(=O)[C@H](CC(=O)O)NC(=O)[C@H](CCCCN)NC(=O)[C@H](CO)NC(=O)[C@H](CCSC)NC(=O)[C@H](CC(=O)O)NC(=O)[C@H](CCSC)NC(=O)[C@H](Cc1ccc(OP(=O)(O)O)cc1)NC(=O)CNC(=O)CNC(=O)[C@H](CC(=O)O)NC(=O)[C@H](CO)NC(=O)[C@@H](N)CCC(=O)O)[C@@H](C)CC)C(C)C)[C@@H](C)CC)C(=O)N[C@@H](CCC(=O)O)C(=O)O
notes: PDGFR residues 735-767; human has V where this peptide has I at two places; also called phosphopeptide; source: synthetic peptide; bought: New England Peptide
binds: all assays above
